The record followed here is US10508147B2, “Anti-nodal antibodies and methods of using same” (ANN AND ROBERT H. LURIE CHILDREN'S HOSPITAL OF CHICAGO, priority 2014, dated 2019).

“Also recorded” adds a separate entry of the source.

One assay concerns C8161 cells. As to the kind of experiment: Vasculogenic mimicry / vasculogenic network formation assay in 3D culture. In kind it is cell-based, human. The following applies: 24 hours, vs IgG control. How it is done:
Untreated cells, or cells treated with either IgG Control or 3D1 anti-Nodal antibody for 72 hours were cultured in soft agar for three weeks (soft agar clonogenic assay). […] C8161 cells were treated with either 4 μg/ml of either Santa Cruz (SC), or 3D1 function blocking anti-Nodal antibodies, or IgG Control and cultured in three dimensional cultures for 24 hours to measure their ability to engage in vasculogenic mimicry (VM).
Three-dimensional matrices were prepared by spreading 75 μl of ice-cold Matrigel (average 12-15 mg/ml; Corning, Bedford, Mass.) into 12-well culture dishes and polymerized for one hour at 37° C. C8161 human melanoma cells (1×10^5 cells/well) were then plated onto the prepared Matrigel matrices in the presence of either 4 μg/ml mouse IgG control or 3D1 mAb (2.8 μg/ml). No additional antibody was added. Tubular network formation was then observed after 24 hr and images captured digitally using a Zeiss model 25 inverted microscope (Carl Zeiss, Inc, Thornwood, N.Y.) and Hitachi HV-C20 CCD camera (Hitachi Denshi Ltd., Woodbury, N.Y.). Mean values were calculated from images of at least four different fields of both the IgG control and 3D1 mAb treated cultures, and then analyzed using the AngioSys software package (TCS CellWorks, Ltd., Buckingham, UK) with the mean number (±SEM) of junctions and tubules calculated from the analyzed fields.

In assay [1] the test system is A375SM human metastatic melanoma cells. The experiment in a line: A375SM orthotopic xenograft in Nude mice. In kind it is in vivo. As for the experimental part:
Experiments were carried out to determine the in vivo effects of 3D1 mAb on primary melanoma. To this end, 500,000 C8161 cells were injected subcutaneously in Nude mice. Palpable tumors were then injected directly with either 700 μg of total 3D1 mAb or IgG control antibody (alternate day intratumoral injection of 100 μg over 14 days). Mice were then sacrificed and subcutaneous tumors harvested and processed as previously described. To evaluate the effect of 3D1 mAb in the presence of the BRAF(V600E) mutation, a third orthotopic xenograft model was established in Nude mice via subcutaneous injection of approximately 150,000 A375SM human metastatic melanoma cells. Mice were treated IP with 3D1 mAb or IgG control, as described above, or 3 mg/kg of dabrafenib.
Four micron thick, formalin fixed, paraffin embedded tissue sections were prepared and immunohistochemistry was carried out on a Dako Plus autostainer (DAKO, Inc, Carpenteria, Calif.). Following antigen retrieval and blocking steps, sections were incubated in primary antibody for 60 mins, followed by appropriate biotinylated secondary antibody (Biocare Medical, Conrad, Calif.), and then streptavidin-horseradish peroxidase (Thermo Scientific Lab Vision). Color was developed with 3,3′-diaminobenzidine substrate (Thermo Scientific Lab Vision) and sections were counterstained with hematoxylin (Biocare Medical, LLC). As a negative control, adjacent serial sections were incubated with species appropriate irrelevant IgG (Jackson ImmunoResearch Labs) at the same concentration as primary antibodies. Similar to the lung tumor burden evaluation described above, mean percentage of positive staining±SEM was determined by 2 different observers, each calculating the ratio of positive cells/total number of cells×100 for 4 separate high power fields (63× objective) from at least 2 different mice per group.

A further assay has as its target T1, recombinant Nodal (Homo sapiens, UniProt Q96S42).
T1 sequence (Q96S42 238-347): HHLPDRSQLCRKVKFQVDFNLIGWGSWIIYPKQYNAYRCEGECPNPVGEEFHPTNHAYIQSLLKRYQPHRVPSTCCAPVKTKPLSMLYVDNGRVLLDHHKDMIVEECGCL
The experiment in a line: Sandwich ELISA to detect Nodal with 3D1 as capture antibody. Further details: E. coli derived His238 Leu347, with an N-terminal Met; purchased R&D Systems. Conditions: rabbit monoclonal anti-Nodal for detection. The source says:
A typical calibration curve was obtained using a sandwich ELISA assay developed to detect Nodal (detection limit 50 pg/well) (See FIG. 22). The assay used monoclonal anti-Nodal antibody (designated 3D1) to coat an ELISA dish to capture rNodal (recombinant Nodal) from solutions with different concentrations of rNodal and a second, rabbit monoclonal anti-Nodal antibody to detect the captured rNodal. The resulting captured rNodal-antibody complex was then detected with an anti-rabbit antibody conjugated to horseradish peroxidase and a QuantaRed enhanced chemifluorescent horseradish peroxidase substrate.
By epitope mapping of commercially available Nodal antibodies and 3D1 mAb, the latter was chosen as the capture antibody for coating ELISA dishes, while a rabbit monoclonal anti-Nodal (Abcam) served for detecting the bound Nodal. The immune complex was subsequently quantified using a horseradish peroxidase-conjugated anti-rabbit antibody in conjunction with QuantaRed enhanced chemifluorescent horseradish peroxidase substrate (ThermoFisher). The established sandwich ELISA assay detects Nodal as a recombinant protein in conditioned media from human embryonic stem cells and in biological fluids with a detection limit (calculated using recombinant Nodal) of […]. Human serum samples from breast cancer patients were purchased from BioOptions (Brea, Calif.).
Background: In an ELISA, binding on a coated surface is turned into a signal by an enzyme label.

B1: 3D1: mouse monoclonal anti-Nodal antibody raised against hNodal(44-67); light chain SEQ ID NO:1, heavy chains SEQ ID NO:2 and 3 (protein)
light: DIKMTQSPASLSASVGETVTITCRASGNIHNYLAWYQQKQGKSPQLLVYNAKTLADGVPSRFSGSGSGTQYSLKINSLQPEDFGSYYCQHFWSTPHVRCWDQAGTETEAW
heavy 1: VKLVESGGGLVKPGGSLKLSCAASGFTFSSYAMSWVRQTPEKRLEWVASISSGGCTYYPDSVKGRFTISRDNARNILYLQMSSLRSEDTAMYYCARGSMITADGNSLLLCYGLLGSRNLXHR
heavy 2: VKLVESGGGLVQPGGSMKLSCVASGFTFRNYWMSWVRQSPEKGLEWVAEIRLKSDNYAARYAESVKGKFTISRDDSKSRLYLQMNSLRAEDTGIYYCTGIRRFAYWGQGTL
modifications: not fully specified; (120)..(120) Xaa can be any naturally occurring amino acid
B1: the “formation of vasculogenic mimicry networks (junctions and tubules)” value was “did not complete the formation of networks” in the assay with C8161 cells; “unable to form complete networks characteristic of VM; also recorded: significant reduction in the ability to form junctions and tubules” in the assay with C8161 cells (listed as 3D1 mAb). In addition, in assay [1] (IHC, N=4), the “mean percentage (±SEM) of nuclear P-Smad2” value was 28.1%±2.6%. For the same molecule, in assay [1] (after 8 days, vs IgG control, listed as 3D1 mAb), the tumor volumes entry is given as “significantly reduced; also recorded: significantly smaller”. Further, the “detection limit for Nodal” value with recombinant Nodal stood at 50 pg/well; with recombinant Nodal (listed as 3D1 mAb) it was 75 pg/well.
